{"source": "patent US9730926B2", "about": "“Combination therapy using bispecific anti-c-Met/anti-EGFR antibody and c-Src inhibitor” (Samsung Electronics Co., Ltd., priority 2014, dated 2017)", "molecules": {"B1": {"name": "ME-19: bispecific anti-c-Met/anti-EGFR antibody: anti-EGFR DARPin fused to C-terminus of L3-1Y heavy chain through (G4S)2 linker (antibody)", "heavy": "EVQLVESGGGLVQPGGSLRLSCAASGFTFTDYYMSWVRQAPGKGLEWLGFIRNKANGYTTEYSASVKGRFTISRDNSKNTLYLQMNSLRAEDTAVYYCARDNWFAYWGQGTLVTVSSASTKGPSVFPLAPCSRSTSESTAALGCLVKDYFPEPVTVSWNSGALTSGVHTFPAVLQSSGLYSLSSVVTVPSSNFGTQTYTCNVDHKPSNTKVDKTVERKCCVECPPCPAPPVAGPSVFLFPPKPKDTLMISRTPEVTCVVVDVSHEDPEVQFNWYVDGVEVHNAKTKPREEQFNSTFRVVSVLTVVHQDWLNGKEYKCKVSNKGLPAPIEKTISKTKGQPREPQVYTLPPSREEMTKNQVSLTCLVKGFYPSDIAVEWESNGQPENNYKTTPPMLDSDGSFFLYSKLTVDKSRWQQGNVFSCSVMHEALHNHYTQKSLSLSPGKGGGGSGGGGSDLGKKLLEAARAGQDDEVRILMANGADVNADDTWGWTPLHLAAYQGHLEIVEVLLKNGADVNAYDYIGWTPLHLAADGHLEIVEVLLKNGADVNASDYIGDTPLHLAAHNGHLEIVEVLLKHGADVNAQDKFGKTAFDISIDNGNEDLAEILQ", "light": "DIQMTQSPSSLSASVGDRVTITCKSSQSLLASGNQNNYLAWYQQKPGKAPKMLIIWASTRVSGVPSRFSGSGSGTDFTLTISSLQPEDFATYYCQQSYSRPYTFGQGTKVEIKRTVAAPSVFIFPPSDEQLKSGTASVVCLLNNFYPREAKVQWKVDNALQSGNSQESVTEQDSKDSTYSLSSTLTLSKADYEKHKVYACEVTHQGLSSPVTKSFNRGEC"}, "B2": {"name": "L3-1Y: anti-c-Met antibody: huAbF46-H4-A1 variable regions, human IgG2 hinge and constant region, human kappa light chain (antibody)", "heavy": "EVQLVESGGGLVQPGGSLRLSCAASGFTFTDYYMSWVRQAPGKGLEWLGFIRNKANGYTTEYSASVKGRFTISRDNSKNTLYLQMNSLRAEDTAVYYCARDNWFAYWGQGTLVTVSSASTKGPSVFPLAPCSRSTSESTAALGCLVKDYFPEPVTVSWNSGALTSGVHTFPAVLQSSGLYSLSSVVTVPSSNFGTQTYTCNVDHKPSNTKVDKTVERKCCVECPPCPAPPVAGPSVFLFPPKPKDTLMISRTPEVTCVVVDVSHEDPEVQFNWYVDGVEVHNAKTKPREEQFNSTFRVVSVLTVVHQDWLNGKEYKCKVSNKGLPAPIEKTISKTKGQPREPQVYTLPPSREEMTKNQVSLTCLVKGFYPSDIAVEWESNGQPENNYKTTPPMLDSDGSFFLYSKLTVDKSRWQQGNVFSCSVMHEALHNHYTQKSLSLSPGK", "light": "DIQMTQSPSSLSASVGDRVTITCKSSQSLLASGNQNNYLAWYQQKPGKAPKMLIIWASTRVSGVPSRFSGSGSGTDFTLTISSLQPEDFATYYCQQSYSRPYTFGQGTKVEIKRTVAAPSVFIFPPSDEQLKSGTASVVCLLNNFYPREAKVQWKVDNALQSGNSQESVTEQDSKDSTYSLSSTLTLSKADYEKHKVYACEVTHQGLSSPVTKSFNRGEC"}}, "key": {"[1]": {"test_system": "K-Ras mutated colorectal cancer cell line (HCT-116 cell line)", "assay": "Cell proliferation assay (Cell Counting Kit-8), HCT-116 cell line", "format": "cell-based", "details": "for cell proliferation, co-treatment with ME22S compared to c-Src inhibitor alone: dasatinib 10-1000 nM or saracatinib 10-10000 nM + 5 μg/ml ME22S", "experimental": "(§1) The cells were stored in RPMI1640 medium (GIBCO) containing 10%(v/v) FBS under the conditions of 5% CO2 and 37° C., until being used in the following experiments. A cell proliferation assay was performed as follows.\nRPMI1640 medium (GIBCO) containing 10% FBS was added to 96-well plate.\n(§2) At 72 hours after the treatment, 10 μL of Cell Counting Kit-8 solution (Dojindo Molecular Technologies, Gaithersburg, Md.) was added to each well, and left at room temperature for 2 hours.\n(§3) In detail, RPMI1640 medium (GIBCO) containing 10% FBS was added to 96-well plate."}, "[2]": {"test_system": "K-Ras mutated colorectal cancer cell line (Lovo cell line)", "assay": "Cell proliferation assay (Cell Counting Kit-8), Lovo cell line", "format": "cell-based", "details": "for cell proliferation, co-treatment with ME22S compared to c-Src inhibitor alone: c-Src inhibitor 10, 100, 1000 nM + 5 μg/ml ME22S"}, "[3]": {"test_system": "EGFR T790M mutated non-small cell lung cancer cell line (H1975)", "details": "FIGS. 17 to 19; for cell proliferation, co-treatment with bispecific antibody compared to c-Src inhibitor alone: c-Src inhibitor 10, 100, 1000 nM + 5 μg/ml ME22S, HGF and EGF 100 ng/ml, 72 hours; for dose dependence of the synergistic effect by co-treatment with bispecific antibody: c-Src inhibitor concentration varied, ME22S 5 μg/ml", "experimental": "as §1, §3, §2"}, "[4]": {"test_system": "EGFR T790M mutated non-small cell lung cancer cell line (H820 cell line)", "assay": "Cell proliferation assay (Cell Counting Kit-8), H820 cell line", "format": "cell-based", "description": "The H820 cell line was obtained from ATCC. The H820 cells comprise EGFR T790M mutation."}, "[5]": {"test_system": "K-Ras mutated colorectal cancer cell line (Lovo cell line)", "assay": "Cell proliferation assay (Cell Counting Kit-8), Lovo cell line", "format": "cell-based", "details": "FIG. 4, FIG. 5", "method": "To examine the cell proliferation inhibition effect depending on the amount of a bispecific anti-c-Met/anti-EGFR antibody, the experiment was carried out by varying the amount of the treated bispecific anti-c-Met/anti-EGFR antibody with fixing the amount of dasatini as 30 nM.\nThis experiment was conducted referring to the experiment of the cell proliferation test depending on the amount of the antibody as described above, except the amount of the treated antibody and the c-Src inhibitor."}, "[6]": {"details": "5 μg/ml alone, HGF and EGF 100 ng/ml, 72 hours"}}}
{"molecule": "CN1CCN(CCOc2cc(OC3CCOCC3)c3c(Nc4c(Cl)ccc5c4OCO5)ncnc3c2)CC1", "note": "[saracatinib, 4-Quinazolinamine, N-(5-Chloro-1,3-benzodioxol-4-yl)-7-[2-(4-methyl-1-piperazinyl)ethoxy]-5-[(tetrahydro-2H-pyran-4-yl)oxy]-4-quinazolinamine]", "values": [{"measurement": "dose dependence of the synergistic effect by co-treatment with ME22S", "setting": "[1]; c-Src inhibitor concentration varied, ME22S 5 μg/ml, FIG. 14, FIG. 15", "result": "generally dose-dependent for the c-Src inhibitor"}, {"measurement": "cell proliferation, co-treatment with ME22S compared to c-Src inhibitor alone", "setting": "[1]; 72 hours, FIG. 14, FIG. 15", "result": "significantly synergistic therapeutic effect"}, {"measurement": "cell proliferation, co-treatment with ME22S compared to c-Src inhibitor alone", "setting": "[2]; 72 hours, FIG. 6, FIG. 7", "result": "more synergistic therapeutic effect"}, {"measurement": "dose dependence of the synergistic effect by co-treatment with ME22S", "setting": "[2]; c-Src inhibitor concentration varied, ME22S fixed at 5 μg/ml, FIG. 6, FIG. 7", "result": "generally dose-dependent for the c-Src inhibitor"}, {"measurement": "cell proliferation, co-treatment with bispecific antibody compared to c-Src inhibitor alone", "setting": "[3]", "result": "significantly synergistic therapeutic effect"}, {"measurement": "dose dependence of the synergistic effect by co-treatment with bispecific antibody", "setting": "[3]", "result": "generally dose-dependent for the c-Src inhibitor"}]}
{"molecule": "COc1cc(Nc2c(C#N)cnc3cc(OCCCN4CCN(C)CC4)c(OC)cc23)c(Cl)cc1Cl", "note": "[bosutinib, 4-[(2,4-dichloro-5-methoxyphenyl)amino]-6-methoxy-7-[3-(4-methylpiperazin-1-yl)propoxy]quinoline-3-carbonitrile]", "values": [{"measurement": "cell proliferation, co-treatment with bispecific antibody compared to c-Src inhibitor alone", "setting": "[3]", "result": "significantly synergistic therapeutic effect"}, {"measurement": "dose dependence of the synergistic effect by co-treatment with bispecific antibody", "setting": "[3]", "result": "generally dose-dependent for the c-Src inhibitor"}]}
{"molecule": "Cc1nc(Nc2ncc(C(=O)Nc3c(C)cccc3Cl)s2)cc(N2CCN(CCO)CC2)n1", "note": "[dasatinib, N-(2-chloro-6-methylphenyl)-2-[[6-[4-(2-hydroxyethyl)-1-piperazinyl]-2-methyl-4-pyrimidinyl]amino]-5-thiazole carboxamide monohydrate, reference compound]", "values": [{"measurement": "cell proliferation, co-treatment with ME22S compared to c-Src inhibitor alone", "setting": "[1]; 72 hours, FIG. 14, FIG. 15", "result": "significantly synergistic therapeutic effect"}, {"measurement": "cell proliferation, co-treatment with ME22S compared to c-Src inhibitor alone", "setting": "[2]; 72 hours, FIG. 6, FIG. 7", "result": "more synergistic therapeutic effect"}]}
{"molecule": "B1", "values": [{"measurement": "cell proliferation, co-treatment with c-Src inhibitor compared to either alone", "setting": "[4]; ME19 0.01, 0.1, 1 or 10 μg/ml + dasatinib 30 nM, 72 hours, FIG. 10", "result": "more considerable inhibition effect on the cell proliferation"}, {"measurement": "dose dependence of the inhibition effect on cell proliferation", "setting": "[4]; ME19 concentration varied, dasatinib 30 nM, FIG. 10", "result": "generally dose-dependent for the bispecific anti-c-Met/anti-EGFR antibody"}, {"measurement": "cell proliferation, co-treatment with dasatinib compared to bispecific antibody alone", "setting": "[5]; ME-19 10, 1, 0.1, 0.01 μg/ml or ME22S 1, 0.1, 0.01 μg/ml + 30 nM dasatinib, 72 hours", "result": "more synergistic therapeutic effect"}, {"measurement": "dose dependence of the synergistic effect by co-treatment with dasatinib", "setting": "[5]; antibody concentration varied, dasatinib fixed at 30 nM", "result": "dose-dependent for the antibody"}, {"measurement": "cell proliferation, bispecific antibody + dasatinib compared to co-treatment of dasatinib, L3-1Y and erbitux", "setting": "[1]; 5 μg/ml ME19 + 5 nM dasatinib, 72 hours, FIG. 13", "result": "considerable inhibition effect on cancer cell proliferation"}, {"measurement": "cell proliferation, co-treatment with dasatinib compared to each of the drugs", "setting": "[1]; 5 μg/ml ME19 + 5 nM dasatinib, HGF and EGF 100 ng/ml, 72 hours, FIG. 13", "result": "more considerable cell proliferation inhibition effect"}, {"measurement": "cell proliferation, bispecific antibody + dasatinib compared to co-treatment of dasatinib, L3-1Y and erbitux", "setting": "[2]; 5 μg/ml antibody + 30 nM dasatinib, 72 hours", "result": "considerable inhibition effect on cancer cell proliferation"}, {"measurement": "cell proliferation, combination with dasatinib compared to the drugs alone", "setting": "[2]; 5 μg/ml antibody + 30 nM dasatinib, HGF and EGF 100 ng/ml, 72 hours, FIG. 2, FIG. 3", "result": "considerable inhibitory effect on the cell proliferation"}]}
{"molecule": "B2", "values": [{"measurement": "cell proliferation, L3-1Y in combination with erbitux", "setting": "[4]; 5 μg/ml L3-1Y + 5 μg/ml erbitux, 72 hours", "result": "increased cell proliferation"}, {"measurement": "cell proliferation, antibody alone", "setting": "[4]; [6]", "result": "increased cell proliferation"}, {"measurement": "cell proliferation, L3-1Y in combination with erbitux", "setting": "[2]; 5 μg/ml L3-1Y + 5 μg/ml erbitux, HGF and EGF 100 ng/ml, 72 hours", "result": "increased cell proliferation"}, {"measurement": "cell proliferation, antibody alone", "setting": "[2]; [6]", "result": "increased cell proliferation"}]}
